Ends that are not written are not given here.
What was measured:
HA-pVHL [1] = target: T1, HA-pVHL (UniProt P40337 1-213); experiment: peptide binding assay; unpublished data (16)
T1 construct: In the cells it sits in complexes; also called 35S-HA-pVHL; 35S-labeled pVHL

[2] = target: T2, pVHL (form used not given) (UniProt P40337 1-213); experiment: binding to GST-ODD after phosphatase treatment; unpublished data (16)
T2 construct: also called wild-type pVHL

[3] = target: T3, immobilized GST-pVHL, elongin B, elongin C complexes (UniProt P40337 54-213; Q15370 1-118; Q15369 17-112); experiment: capture of 35S-labeled protein on immobilized GST-VBC
T3 construct: also called GST-VBC; GST-VHL, elongin B, elongin C complexes

HA-pVHL [4] = target: T1, HA-pVHL; experiment: peptide elution of HIF from anti-HA immunoprecipitates of HA-pVHL (ts20 cells); failure to displace

T1 sequence (P40337 whole entry): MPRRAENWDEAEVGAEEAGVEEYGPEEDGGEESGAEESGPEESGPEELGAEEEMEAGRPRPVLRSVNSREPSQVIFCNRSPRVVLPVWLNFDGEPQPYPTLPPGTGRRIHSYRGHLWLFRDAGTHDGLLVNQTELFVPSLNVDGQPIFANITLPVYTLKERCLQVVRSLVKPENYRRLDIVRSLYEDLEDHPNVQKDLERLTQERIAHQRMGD
T2 sequence (P40337 whole entry): as above

B1: biotinylated HIF (556-575) peptide with Met561 and Met568 replaced with alanine (peptide, UniProt Q16665 556-575, looked up)
peptide: DLDLEALAPYIPADDDFQLR
modifications: also: biotinylated (site not given here)
notes: Made for the mass spectrometry experiments
binding result (HA-pVHL [1]): binds

B2: GST-HIF1α(530-652) produced in E. coli and preincubated with rabbit reticulocyte lysate (other, UniProt Q16665 530-652, looked up)
chain: EFKLELVEKLFAEDTEAKNPFSTQDTDLDLEMLAPYIPMDDDFQLRSFDQLSPLESSSASPESASPQSTVTVFQQTQIQEPTANATTTTATTDELKTVTKDRMEDIKILIASPSPTHIHKETT
modifications: modified by a factor in reticulocyte lysate; later examples identify the modification as hydroxylation of Pro 564
notes: range 530-652; Incubated with rabbit reticulocyte lysate for 90 min at 30° C; also called GST-ODD; not shown: glutathione S-transferase (GST) fusion partner
binding result [2]: binds

B3: Leu562Ala Gal4-HA-HIF1α(530-652) (other)
chain: EFKLELVEKLFAEDTEAKNPFSTQDTDLDLEMAAPYIPMDDDFQLRSFDQLSPLESSSASPESASPQSTVTVFQQTQIQEPTANATTTTATTDELKTVTKDRMEDIKILIASPSPTHIHKETT
notes: range 530-652; also called Gal4-ODD Leu562Ala; not shown: Gal4 portion
binding result [3]: no binding

B4: Pro564Ala Gal4-HA-HIF1α(530-652) (other)
chain: EFKLELVEKLFAEDTEAKNPFSTQDTDLDLEMLAAYIPMDDDFQLRSFDQLSPLESSSASPESASPQSTVTVFQQTQIQEPTANATTTTATTDELKTVTKDRMEDIKILIASPSPTHIHKETT
notes: range 530-652; also called Gal4-ODD Pro564Ala; not shown: Gal4 portion
binding result [3]: no binding

DLDLEMLAAYIPMDDDFQLR (peptide, UniProt Q16665 556-575, looked up, also: biotinylated (site not given here)) [biotinylated HIF1α(556-575) Pro564Ala peptide]
binding result (HA-pVHL [4]): no binding (tested: 7 µg of peptide in 65 µl of PBS)

Reference: US20040219635A1 (Dana-Farber, published 2004)
